Legend:
[1] = target: T1, NprE (Bacillus amyloliquefaciens, UniProt P06832); assay: Remaining AGLA activity of NprE stability assay samples in DW-CT HDL detergent formulation; assay type: biochemical; conditions: no inhibitor; 2 mg/mL NprE incubated in HDL detergent formulation DW-CT, 32° C.
T1 construct: made in house; host or cells: Bacillus subtilis
Experimental: The HDL detergent formulation used in this example was: DW-CT. This formulation has a 37% water content and was designed to make up to 90% by volume with 10% room (by volume) to add ingredients such as stabilizers or enzymes.
Assays were carried out using a 10% DW-CT detergent formulation made by mixing 5 mL of DW-CT (prepared as in Table 1), 1 mL of 500 mM HEPES at pH 8.0, and 44 mL distilled water.
Stability assay samples were prepared using five different candidate protein hydrolysates, as well as a control with no inhibitor added.
In general, 20 μL of inhibitor stock solution was pre-mixed with 10 μL of 50 mg/mL NprE stock solution. Then, 220 μL of 10% DW-CT detergent formulation in 10 mM HEPES was added to each sample so that the final NprE concentration was 2 mg/mL. Samples were incubated at 32° C. in a microtiter plate in a Thermomixer (Eppendorf).
The final concentration of enzyme in each sample was 2 mg/mL NprE. The final inhibitor concentrations in their respective samples were: 5.6 mg/mL of Amisoy, Amicase, HyPep 4601, or Proteose Peptone, respectively; or 7.2 mM of the casein hydrolysis product mixture (based on 12.5-fold dilution). […]
Remaining NprE activity of each of stability assay samples (prepared as above) was measured at various time points using the general AGLA activity assay except that the assay solution used was 50 mM MES, 2.5 mM CaCl2, 0.005% Tween 80 at pH 6.5.

[2] = NprE stability at different storage concentrations (AGLA activity over time); assay type: physicochemical
Experimental: Samples were prepared containing the neutral metalloprotease, NprE, at a range of concentrations from 625 to 10000 ppm in 10 mM HEPES (N-(2-Hydroxyethyl)piperazine-N′-(2-ethanesulfonic acid)) buffer at pH 8.0. All samples, except the one control at 625 ppm NprE concentration, included 10% PPG and 0.5 mM CaCl2. All samples were incubated at a temperature of 32° C. over a period of 6 hours. NprE activity of the samples was measured using the AGLA activity assay at various time points.

[3] = in the presence of zinc ion concentrations lower than 15 mM; cited from earlier work

T1 sequence (P06832 222-521): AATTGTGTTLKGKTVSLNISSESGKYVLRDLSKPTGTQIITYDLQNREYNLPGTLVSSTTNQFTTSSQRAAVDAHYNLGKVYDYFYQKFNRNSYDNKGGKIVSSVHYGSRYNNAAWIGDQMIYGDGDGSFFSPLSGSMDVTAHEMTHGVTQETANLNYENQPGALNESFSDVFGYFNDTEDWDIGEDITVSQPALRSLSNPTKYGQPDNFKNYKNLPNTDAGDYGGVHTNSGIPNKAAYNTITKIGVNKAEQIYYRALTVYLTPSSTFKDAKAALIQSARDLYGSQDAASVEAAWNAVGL

Substance: NprE: recombinant neutral metalloprotease: Bacillus amyloliquefaciens neutral metalloprotease cloned into Bacillus subtilis
- loss of original NprE activity in about an hour [1]: more than 80%
- NprE activity maintained for 1.5 hours ([2]; 10,000 μg/mL (or ppm) NprE, 10% PPG, 0.5 mM CaCl2, 10 mM HEPES pH 8.0, 32° C.): almost full activity
- NprE activity at 1.5 hr ([2]; 625, 1250 and 2500 ppm NprE, 10% PPG, 0.5 mM CaCl2, 10 mM HEPES pH 8.0, 32° C.): ~60%
- NprE activity over time, control sample ([2]; 625 ppm NprE, no added PPG or CaCl2, 10 mM HEPES pH 8.0, 32° C.): lost nearly all of its activity within the first 2 hours
- stability period under detergent formulation conditions [3]: approximately 4 weeks
